B1: LINE1-full (parent)
chain: UACGUAGGUGGUUUUCCCCUGAUAGUGCUAAGGGGGCCUGGAAGUUUGGACUGGGCAGAGCUCAACACAGCGUGGCAAAGUGGCUGUGGCUAGACUGCCUCUCUGGAUUCCUCGUCACUCAGCAGGGCAUCUCUGAGAGAAAUGCC

Variants of: B1
Assay: self-cleavage, relative activity (ratio to wild type); higher = more cleavage; in vitro, sequencing; the parent is a self-cleaving ribozyme
With A22U U104C the self-cleavage was 1.31. With U20A C56U the self-cleavage was 0.18. For A2G A31G, the self-cleavage was 1. Work on A65G A107U yielded a self-cleavage of 0. With A69G U91C the self-cleavage was 0. In the case of G80A A107U, the self-cleavage is reported as 2.11. In the case of U9C A24G, the self-cleavage is reported as 1.04. Variant A6U U96C has a self-cleavage of 0.09. U23A U81A gave a self-cleavage of 1.7. For A30G C90U, the self-cleavage was 0.07. For A50U A124U, the self-cleavage was 1.11. With G34U A43U the self-cleavage was 0.97. Variant U109A U134C has a self-cleavage of 1.67. A22C U119A showed a self-cleavage of 2.09. Work on U45C U115C yielded a self-cleavage of 2.14. A43U C99U gave a self-cleavage of 0.2. For C3U G7C, the self-cleavage was 0. C37U A142G gave a self-cleavage of 1.52. G4A A43G gave a self-cleavage of 0.67. Work on U1C A65U yielded a self-cleavage of 0.06. A6U A140G showed a self-cleavage of 0.77. Variant A43U A59G has a self-cleavage of 0.03. Variant U15C U47C has a self-cleavage of 1.64. In the case of U62C G122A, the self-cleavage is reported as 0.04. A6U A42G gave a self-cleavage of 0.58. For U39C A141G, the self-cleavage was 1.11. In the case of G114A A124C, the self-cleavage is reported as 1.62. Variant A64G G127U has a self-cleavage of 0.21. With U62A A78G the self-cleavage was 0.05. In the case of U81C G125U, the self-cleavage is reported as 1.5. A42U U115G gave a self-cleavage of 1.04. Work on C3U A43G yielded a self-cleavage of 0.95. Variant G11A A94G has a self-cleavage of 0.08. U20A U108G gave a self-cleavage of 0.53. U9A U104A gave a self-cleavage of 1.29. With U23A A77U the self-cleavage was 1.24. U9C A30U gave a self-cleavage of 0.87. Work on A22G U52C yielded a self-cleavage of 1.56. Variant A31C U47A has a self-cleavage of 1.12. U12A C76U showed a self-cleavage of 1.23. Variant U20A U102C has a self-cleavage of 1.46. In the case of A69G A94G, the self-cleavage is reported as 0.14. In the case of U14C U91A, the self-cleavage is reported as 0.91. With U115A U134C the self-cleavage was 1.49. For A78G U85A, the self-cleavage was 0.09. C90G A142G showed a self-cleavage of 0.05. Work on A43G A94C yielded a self-cleavage of 0.14. Variant A42C G53A has a self-cleavage of 1.22. A77G A124U showed a self-cleavage of 1.84. For U115C A124U, the self-cleavage was 1.69. A2G C37G showed a self-cleavage of 0.87. With U5A A129G the self-cleavage was 0.79. With U87A G127A the self-cleavage was 0.04. In the case of U100C A142C, the self-cleavage is reported as 2.2. In the case of G36U U143C, the self-cleavage is reported as 1.16. For U12G C90U, the self-cleavage was 0.08. For G44A U109C, the self-cleavage was 1.09. Work on U96G G126A yielded a self-cleavage of 0. Work on U29A U100A yielded a self-cleavage of 0.91. Work on U23A U108A yielded a self-cleavage of 1.44. With A67U U132C the self-cleavage was 0.16. Work on U91C U109C yielded a self-cleavage of 0.61. Work on A24U A57G yielded a self-cleavage of 0.56. With U119C A138U the self-cleavage was 1.67. U85A U109A showed a self-cleavage of 0.06. For G48A A78G, the self-cleavage was 1.21. Variant U5C A121U has a self-cleavage of 0.86. In the case of U14C A138C, the self-cleavage is reported as 1.56. For G36A A57U, the self-cleavage was 0.12. For U15C A43G, the self-cleavage was 1.4. Work on G70A A79G yielded a self-cleavage of 0.1. For U100C A107C, the self-cleavage was 2.87. For U119A A136G, the self-cleavage was 1.12. Work on U132G A138G yielded a self-cleavage of 1.35. For U119C U143A, the self-cleavage was 1.94. Work on A107G U134C yielded a self-cleavage of 1.33. Work on A30U U81C yielded a self-cleavage of 1.52. In the case of A2C U130C, the self-cleavage is reported as 1.19. For G40A A64U, the self-cleavage was 0.38. Variant U1C A77G has a self-cleavage of 1.32. For G41A A136U, the self-cleavage was 1.53. For G32A A107C, the self-cleavage was 1.91. G40A U130A gave a self-cleavage of 1.36. Work on U9C U91C yielded a self-cleavage of 1.75. In the case of G25A G27A, the self-cleavage is reported as 1.03. Work on G49A A124G yielded a self-cleavage of 0.55. With U13A A78G the self-cleavage was 0.84. For U45C A138C, the self-cleavage was 1.44. U46G G89A showed a self-cleavage of 0.04. For U87G A140G, the self-cleavage was 0.19. U23A A141G showed a self-cleavage of 1.21. Variant C18U U85G has a self-cleavage of 0.23. Variant U108C U112C has a self-cleavage of 1.74. U46C G144A gave a self-cleavage of 2.24. With U20C G88A the self-cleavage was 0.06. Variant A59G U73C has a self-cleavage of 0.07. Work on U15C C131A yielded a self-cleavage of 1.74. Variant A65C A141G has a self-cleavage of 0.02. U112C U143C gave a self-cleavage of 1.54. In the case of A43G U115G, the self-cleavage is reported as 1.02. A43G U115C gave a self-cleavage of 1.52. U26C A59G gave a self-cleavage of 0.08. Work on G7A A22U yielded a self-cleavage of 0.73. With G49A G54A the self-cleavage was 0.18. G32A C71U showed a self-cleavage of 0.91. A69C U85C showed a self-cleavage of 0.03. With U47A C76U the self-cleavage was 1.83. A30U C56U gave a self-cleavage of 0.04. A31G A79U gave a self-cleavage of 2.64. With U20A U130A the self-cleavage was 0.32. Variant U85A G126U has a self-cleavage of 0.07. Work on U46A A117U yielded a self-cleavage of 1.46. In the case of A30G A67U, the self-cleavage is reported as 0.1. U46G A136G showed a self-cleavage of 1.96. U20G U119C gave a self-cleavage of 1.74. U62C U100C showed a self-cleavage of 0.09. With U100C C110A the self-cleavage was 1.77. Work on G35U A67G yielded a self-cleavage of 0.35. In the case of U1A A138G, the self-cleavage is reported as 1.05. In the case of U20G G34A, the self-cleavage is reported as 0.69. U47G A92G showed a self-cleavage of 0.17. With U12C U132C the self-cleavage was 1.13. Variant U9C U73C has a self-cleavage of 1.27. For A43G A65C, the self-cleavage was 0. G54A U104A gave a self-cleavage of 0.18. For A22G U100A, the self-cleavage was 0.98. G40U U85C gave a self-cleavage of 0.13. A50U U102A showed a self-cleavage of 1.63. In the case of U87C A138G, the self-cleavage is reported as 0.28. Variant U13C U100G has a self-cleavage of 1.63. Work on G55U U134G yielded a self-cleavage of 0.15. Work on U29A U73A yielded a self-cleavage of 1.55. Variant C19A A59G has a self-cleavage of 0.13. U100A U108C showed a self-cleavage of 1.96. In the case of U47C A140G, the self-cleavage is reported as 1.52. Work on G86A U91C yielded a self-cleavage of 0.07. U47A U119C gave a self-cleavage of 1.53. In the case of U108C A129G, the self-cleavage is reported as 1.57. Work on A42U A142U yielded a self-cleavage of 0.57. In the case of U45A A94G, the self-cleavage is reported as 0.05. Work on U52C A59G yielded a self-cleavage of 0.16. Work on U12C G82C yielded a self-cleavage of 2.15. U52A U87C gave a self-cleavage of 0.29. Variant A31U G34A has a self-cleavage of 0.56. Variant G32U A121U has a self-cleavage of 0. Work on U1C A67G yielded a self-cleavage of 0.41. For A24U G40A, the self-cleavage was 0.71. G60U A121G gave a self-cleavage of 0. In the case of A43G A92G, the self-cleavage is reported as 0.22. In the case of G34C U47C, the self-cleavage is reported as 1.79. A94G U102C showed a self-cleavage of 0.18. In the case of U73C A77G, the self-cleavage is reported as 2.78. Work on U109A A140G yielded a self-cleavage of 0.96. With G32A U81G the self-cleavage was 1.36. With A2G U91C the self-cleavage was 0.45. Variant U15A A64G has a self-cleavage of 0.08. U26C G60A gave a self-cleavage of 0.12. With U45G A59G the self-cleavage was 0. C51U A140G gave a self-cleavage of 1.09. G35A U73C gave a self-cleavage of 1.19. For A30C A67C, the self-cleavage was 0.21. G48C gave a self-cleavage of 1.01. With C90A A141G the self-cleavage was 0.03. C17U A65G gave a self-cleavage of 0.18. U39A U91C showed a self-cleavage of 0.43. Variant A78U U130C has a self-cleavage of 2.68. Variant U91C A141U has a self-cleavage of 0.51.

Reference: the RNAGym collection of RNA variant scans (doi:10.7554/elife.90254)
